Results on five molecules are retold here after PMC9482650, “Quantitative fragmentomics allow affinity mapping of interactomes” (Nature Communications, 2022).

Assay in all cases: holdup assay
Holding throughout (set-up): key: below the threshold = too weak to quantify, mostly under pKd 3.1 to 4

Experiment [1] addresses DLG1_1, Q12959.
Experiment [2] addresses DLG4_1, P78352.
The target in experiment [3] is T1, SYNJ2BP, P57105.
T1 sequence (P57105 8-110, limits assumed, looked up): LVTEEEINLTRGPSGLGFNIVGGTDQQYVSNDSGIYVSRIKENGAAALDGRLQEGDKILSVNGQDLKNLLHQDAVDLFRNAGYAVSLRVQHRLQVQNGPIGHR

Experiment [4] addresses MAGI1_2, Q96QZ7.
In experiment [5] the target is DLG1_3, Q12959.
In experiment [6] the target is MAGI2_5, Q86UL8.
In experiment [7] the target is T2, DFNB31_3, Q9P202.
T2 sequence (Q9P202 811-907, limits assumed, looked up): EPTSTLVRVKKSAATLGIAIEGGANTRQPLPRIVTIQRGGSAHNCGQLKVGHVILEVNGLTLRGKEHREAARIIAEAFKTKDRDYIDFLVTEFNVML

For experiment [8], the target named is T3, LIN7C, Q9NUP9.
T3 sequence (Q9NUP9 88-185, limits assumed, looked up): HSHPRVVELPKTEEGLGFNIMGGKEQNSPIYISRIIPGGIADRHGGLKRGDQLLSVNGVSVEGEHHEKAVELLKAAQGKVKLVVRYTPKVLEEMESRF

For experiment [9], the target named is T4, SNTA1, Q13424.
T4 sequence (Q13424 82-180, limits assumed, looked up): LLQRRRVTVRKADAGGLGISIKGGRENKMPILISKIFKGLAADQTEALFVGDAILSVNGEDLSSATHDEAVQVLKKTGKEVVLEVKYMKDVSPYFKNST

In experiment [10] the target is Inadl_9, Q8NI35.
Experiment [11] has as its target T5, TX1BP3, O14907.
T5 sequence (O14907 10-122, limits assumed, looked up): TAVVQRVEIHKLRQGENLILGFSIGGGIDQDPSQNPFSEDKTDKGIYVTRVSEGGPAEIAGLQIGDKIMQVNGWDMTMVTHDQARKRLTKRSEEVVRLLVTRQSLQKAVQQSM

Experiment [12] addresses T6, APBA2_1, Q99767.
T6 sequence (Q99767 563-664, limits assumed, looked up): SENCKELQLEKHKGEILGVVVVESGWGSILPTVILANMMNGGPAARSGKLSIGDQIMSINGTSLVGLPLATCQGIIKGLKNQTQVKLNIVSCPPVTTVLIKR

Experiment [13] concerns the target Inadl_3, Q8NI35.
The target in experiment [14] is T7, PDZD7_3, Q9H5P4.
T7 sequence (Q9H5P4 857-944, limits assumed, looked up): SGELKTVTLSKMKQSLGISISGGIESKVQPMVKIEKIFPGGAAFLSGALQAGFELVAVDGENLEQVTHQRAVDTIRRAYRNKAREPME

Experiment [15] has as its target T8, TIAM2, Q8IVF5.
T8 sequence (Q8IVF5 885-986, limits assumed, looked up): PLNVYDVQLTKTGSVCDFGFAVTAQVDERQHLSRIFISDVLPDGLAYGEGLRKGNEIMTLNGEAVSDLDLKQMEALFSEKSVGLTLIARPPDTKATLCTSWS

Experiment [16] deals with T9, APBA2_2, Q99767.
T9 sequence (Q99767 654-744, limits assumed, looked up): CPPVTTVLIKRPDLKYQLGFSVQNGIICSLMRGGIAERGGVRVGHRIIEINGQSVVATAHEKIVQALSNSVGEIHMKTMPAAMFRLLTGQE

Experiment [17] concerns the target T10, RAPGEF6, Q8TEU7.
T10 sequence (Q8TEU7 525-625, limits assumed, looked up): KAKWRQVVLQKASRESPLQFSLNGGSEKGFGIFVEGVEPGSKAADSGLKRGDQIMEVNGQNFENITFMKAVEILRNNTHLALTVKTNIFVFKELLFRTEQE

In experiment [18] the target is Inadl_4, Q8NI35.
For experiment [19], the target named is T11, HTRA4, P83105.
T11 sequence (P83105 378-476, limits assumed, looked up): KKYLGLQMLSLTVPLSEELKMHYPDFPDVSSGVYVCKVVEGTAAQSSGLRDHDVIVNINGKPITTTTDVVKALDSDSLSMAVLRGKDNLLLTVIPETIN

Experiment [20] has as its target T12, GRIP1_2, Q9Y3R0.
T12 sequence (Q9Y3R0 145-248, limits assumed, looked up): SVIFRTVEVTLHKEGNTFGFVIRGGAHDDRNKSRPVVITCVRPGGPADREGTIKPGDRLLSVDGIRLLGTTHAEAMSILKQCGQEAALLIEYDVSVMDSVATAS

Experiment [21] concerns the target T13, GRIP1_3, Q9Y3R0.
T13 sequence (Q9Y3R0 247-346, limits assumed, looked up): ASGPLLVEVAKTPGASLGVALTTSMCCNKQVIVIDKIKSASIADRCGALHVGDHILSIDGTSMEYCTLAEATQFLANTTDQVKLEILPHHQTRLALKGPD

In experiment [22] the target is T14, APBA1_1, Q02410.
T14 sequence (Q02410 651-752, limits assumed, looked up): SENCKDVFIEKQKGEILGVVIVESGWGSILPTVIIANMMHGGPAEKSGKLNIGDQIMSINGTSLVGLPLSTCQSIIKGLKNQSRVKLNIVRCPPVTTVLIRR

Where [23] appears, read: plain residues with an end cap or a label only (N-terminal biotin on a linker: ahx).
Setting [24] is: plain residues with an end cap or a label only (N-terminal biotin on a linker: ado-ado).
The mark [25] stands for this setting: plain residues with an end cap or a label only (N-terminal biotin on a linker: ttds).
Setting [26] is: plain residues with an end cap or a label only (N-terminal biotin on a linker: none).

Sequence of DLG4_1, P78352 (P78352 62-152): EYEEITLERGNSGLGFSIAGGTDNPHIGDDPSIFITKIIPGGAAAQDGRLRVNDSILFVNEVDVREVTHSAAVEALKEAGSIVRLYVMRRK
Sequence of Inadl_3, Q8NI35 (Q8NI35 359-469): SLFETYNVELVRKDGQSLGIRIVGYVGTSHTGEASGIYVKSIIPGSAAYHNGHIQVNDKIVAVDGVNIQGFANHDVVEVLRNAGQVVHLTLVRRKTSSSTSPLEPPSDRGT
Sequence of Inadl_9, Q8NI35 (Q8NI35 1530-1615): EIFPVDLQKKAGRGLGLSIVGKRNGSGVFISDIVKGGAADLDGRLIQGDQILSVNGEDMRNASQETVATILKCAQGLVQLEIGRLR
Sequence of MAGI2_5, Q86UL8 (Q86UL8 915-1017): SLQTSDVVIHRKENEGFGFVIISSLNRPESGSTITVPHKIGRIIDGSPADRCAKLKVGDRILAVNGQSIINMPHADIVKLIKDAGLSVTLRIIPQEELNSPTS
Sequence of Inadl_4, Q8NI35 (Q8NI35 547-651): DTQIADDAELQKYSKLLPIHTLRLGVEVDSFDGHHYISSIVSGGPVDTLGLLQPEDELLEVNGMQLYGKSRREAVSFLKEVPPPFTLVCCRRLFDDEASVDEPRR
Sequence of MAGI1_2, Q96QZ7 (Q96QZ7 456-580): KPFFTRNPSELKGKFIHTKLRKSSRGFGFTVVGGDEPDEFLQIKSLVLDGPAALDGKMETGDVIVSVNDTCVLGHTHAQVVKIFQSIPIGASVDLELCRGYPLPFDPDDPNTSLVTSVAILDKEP

For HSGSYLVTSV [APC, P25054], the pKd stood at 4.6 in experiment [1] (setting [23]); 4.38 in experiment [2] (setting [23]); 4.81 in [3] (setting [23]); 4.05 in experiment [4] (setting [23]); 4.88 in experiment [5] (setting [23]); 4.63 in experiment [6] (setting [23]). The pKd in experiment [7] (setting [23]) is 3.67; in [8] (setting [23]) it was 3.72; in experiment [9] (setting [23]) it was 3.64; in [10] (setting [23]) it was “below the threshold”; in experiment [11] (setting [23]) it was 5.53; in experiment [12] (setting [23]), “below the threshold”. In addition, the pKd result was “below the threshold” in [13] (setting [23]); 5.11 in experiment [14] (setting [23]); “below the threshold” in [15] (setting [23]); “below the threshold” in experiment [16] (setting [23]); “below the threshold” in [17] (setting [23]); “below the threshold” in experiment [18] (setting [23]). The pKd was 4.51 in [19] (setting [23]), “below the threshold” in experiment [20] (setting [23]), “below the threshold” in experiment [21] (setting [23]) and “below the threshold” in [22] (setting [23]).

Turning to RGGFGRQTQI [NCBP2L, A6PVI3], the pKd in [1] (setting [24]) is 4.39; in [2] (setting [24]), 4.25; in experiment [3] (setting [24]), 4.18; in experiment [4] (setting [24]), 3.98; in experiment [5] (setting [24]), 4.24; in [6] (setting [24]), “below the threshold”. Further, the pKd in experiment [7] (setting [24]) was 3.67; in experiment [8] (setting [24]) it was 3.68; in experiment [9] (setting [24]), 4.2; in [10] (setting [24]), “below the threshold”; in experiment [11] (setting [24]), 4.4; in [12] (setting [24]), “below the threshold”. The pKd result was “below the threshold” in [13] (setting [24]); 4.38 in experiment [14] (setting [24]); 4.02 in experiment [15] (setting [24]); “below the threshold” in experiment [16] (setting [24]); “below the threshold” in [17] (setting [24]); “below the threshold” in [18] (setting [24]). Also, the pKd result in [19] (setting [24]), in experiment [20] (setting [24]), in [21] (setting [24]) and in experiment [22] (setting [24]) was “below the threshold” in each case.

TGDTLEKFVEGL [CBP, Q92793]: the pKd entry was “below the threshold” in [1] (setting [25]); 3.54 in [2] (setting [25]); 3.55 in experiment [3] (setting [25]); “below the threshold” in [4] (setting [25]); “below the threshold” in [5] (setting [25]); “below the threshold” in experiment [6] (setting [25]). Further, the pKd entry in experiment [7] (setting [25]) was “below the threshold”; in [8] (setting [25]), “below the threshold”; in [9] (setting [25]), “below the threshold”; in experiment [10] (setting [25]), “below the threshold”; in experiment [11] (setting [25]), 4.03; in experiment [12] (setting [25]), “below the threshold”. Also, the pKd entry in experiment [13] (setting [25]), in experiment [14] (setting [25]), in experiment [15] (setting [25]), in experiment [16] (setting [25]), in experiment [17] (setting [25]) and in [18] (setting [25]) was “below the threshold” in each case. The pKd result in [19] (setting [25]), in experiment [20] (setting [25]), in [21] (setting [25]) and in experiment [22] (setting [25]) was “below the threshold” in each case.

With DSKPPLPPDEWV [MERS-E, K9N5R3], the pKd entry in experiment [1] (setting [26]) was “below the threshold”; in experiment [2] (setting [26]), 3.62; in [3] (setting [26]) it was 3.73; in experiment [4] (setting [26]), “below the threshold”; in [5] (setting [26]), 3.5; in experiment [6] (setting [26]) it was “below the threshold”. For the same molecule, the pKd result is “below the threshold” in [7] (setting [26]); “below the threshold” in [8] (setting [26]); “below the threshold” in experiment [9] (setting [26]); 3.57 in experiment [10] (setting [26]); 3.7 in [11] (setting [26]); “below the threshold” in [12] (setting [26]). In addition, the pKd is 3.55 in [13] (setting [26]); “below the threshold” in experiment [14] (setting [26]); “below the threshold” in [15] (setting [26]); “below the threshold” in experiment [16] (setting [26]); “below the threshold” in experiment [17] (setting [26]); “below the threshold” in experiment [18] (setting [26]). The pKd is 3.68 in experiment [19] (setting [26]), 3.62 in experiment [20] (setting [26]), “below the threshold” in experiment [21] (setting [26]) and 3.53 in experiment [22] (setting [26]).

Turning to QKNKDKEYYV [NRXN3_rs746444206, Q9Y4C0], the pKd entry in [1] (setting [24]), in experiment [2] (setting [24]), in experiment [3] (setting [24]), in experiment [4] (setting [24]), in [5] (setting [24]) and in experiment [6] (setting [24]) was “below the threshold” throughout. The pKd in [7] (setting [24]) was 3.82; in experiment [8] (setting [24]), 4.08; in experiment [9] (setting [24]) it was 3.78; in experiment [10] (setting [24]) it was 4.41; in [11] (setting [24]) it was “below the threshold”; in [12] (setting [24]), “below the threshold”. In addition, the pKd in experiment [13] (setting [24]) is 4; in experiment [14] (setting [24]) it was “below the threshold”; in experiment [15] (setting [24]), 4.34; in experiment [16] (setting [24]), “below the threshold”; in experiment [17] (setting [24]), “below the threshold”; in experiment [18] (setting [24]) it was “below the threshold”. Also, the pKd entry in experiment [19] (setting [24]), in experiment [20] (setting [24]), in experiment [21] (setting [24]) and in experiment [22] (setting [24]) was “below the threshold” throughout.
